Consider 4 molecules from patent US20220127304A1.

One assay concerns the target human IgG1 (human). In words: SPR, Biacore X-100, human IgG1 on the chip, single cycle kinetics. Background: Surface plasmon resonance follows binding to a sensor surface in real time, without labels.
For assay [1], the target named is human serum-derived IgG polyclonal antibody (WAKO) (human). In words: affinity column breakthrough, scFv immobilized on HiTrap NHS-activated HP (33.6 mg).
Assay [2] has the same target. In words: affinity column breakthrough, scFv immobilized on HiTrap NHS-activated HP; average of Reference Examples 1-1 and 1-2.
Assay [3] shares this target. In words: affinity column breakthrough, scFv immobilized on HiTrap NHS-activated HP.

B1: R3-26 repCK+ori6K (scFv)
scFv: QEQLVESGGGLVKPGGTLTLTCTVSGIDLSSYAMSWVRQVPGKGLEWIGIIGSGGGTAYANWARGRFTISRTSSTTVDLRMTSLTTEDTATYFCATDYGIYGYAYGHLWGPGTLVTVTKGGGGSGGGGSGGGGSELVMTQTASPVSAKVGGTVTINCQASQSISTALAWYQQKPGQPPRLLIYDASTLASGVSSRFSGSGSGTEFTLTISDLESADAATYYCQTYFGSDTDNAFGEGTEVEIKGSAAALEHHHHHH
Regarding B1, in the assay with human IgG1 (human), the equilibrium dissociation constant (Kd) (as a rule, the free concentration of one partner at which half of the binding sites on the other are occupied at equilibrium, for simple one-to-one binding) was 0.79 nM; the koff – broadly, a measure of how fast the partners let go of each other – was 6.2e-05 s⁻¹; the kon (commonly the rate constant with which the complex forms) was 79000 M⁻¹ s⁻¹. Besides, the [10% DBC (mg/mL) at flow rate of 1.0 mL/min]/[amount of protein immobilized on column (mg)] in assay [1] was 0.777 (mg/mL)/mg.

B2: R3-26 repCK+ori6K+VH4KVL4K (scFv)
scFv: QEQLVESGGGLVKPGGTLTLTCTVSGIDLSSYAMSWVRQVPGKGLEWIGIIGSGGGTAYANWARGRFTISRTSSTTVDLRMTSLTTEDTATYFCATDYGIYGYAYGHLWGPGTLVTVTKKKKKGGGGSGGGGSGGGGSELVMTQTASPVSAKVGGTVTINCQASQSISTALAWYQQKPGQPPRLLIYDASTLASGVSSRFSGSGSGTEFTLTISDLESADAATYYCQTYFGSDTDNAFGEGTEVEIKKKKKGSAAALEHHHHHH
For B2, in the assay with human IgG1 (human), the Kd came to 0.053 nM, the koff turned out to be 1.6e-05 s⁻¹ and the kon was 300000 M⁻¹ s⁻¹.

B3: single-chain antibody R3-26 (scFv)
scFv: QEQLVESGGGLVKPGGTLTLTCTVSGIDLSSYAMSWVRQVPGKGLEWIGIIGSGGGTAYANWAKGRFTISKTSSTTVDLKMTSLTTEDTATYFCATDYGIYGYAYGHLWGPGTLVTVTSGGGGSGGGGSGGGGSELVMTQTASPVSAAVGGTVTIKCQASQSISTALAWYQQRPGQPPKLLIYDASTLASGVSSRFKGSGSGTEFTLTISDLECADAATYYCQTYFGSDTDNAFGEGTEVEITGSAAALEHHHHHH
B3: in the assay with human IgG1 (human), the Kd worked out at 2.1 nM, the koff is 4.3e-05 s⁻¹ and the kon is 21000 M⁻¹ s⁻¹. The [10% DBC (mg/mL) at flow rate of 1.0 mL/min]/[amount of protein immobilized on column (mg)] in assay [2] is 0.736 (mg/mL)/mg.

B4: R3-26 repCK+K (scFv)
scFv: QEQLVESGGGLVTPGGTLTLTCTVSGIDLSSYAMSWVRQVPGEGLEWIGIIGSGGGTAYANWARGRFTISRTSSTTVDLRMTSLTTEDTATYFCATDYGIYGYAYGHLWGPGTLVTVTSGGGGSGGGGSGGGGSELVMTQTASPVSAAVGGTVTINCQASQSISTALAWYQQRPGQPPRLLIYDASTLASGVSSRFSGSGSGTEFTLTISDLESADAATYYCQTYFGSDTDNAFGEGTEVEITGSAAAGGGGSKIEHHHHHH
For the molecule B4, in the assay with human IgG1 (human), the Kd is 1.6 nM, the koff came out at 9.1e-05 s⁻¹ and the kon worked out at 56000 M⁻¹ s⁻¹. Also, the [10% DBC (mg/mL) at flow rate of 1.0 mL/min]/[amount of protein immobilized on column (mg)] in assay [3] is 0.625 (mg/mL)/mg.
